Results published in the supplement of paper PMC10065799, “High-throughput profiling of sequence recognition by tyrosine kinases and SH2 domains using bacterial peptide display” (eLife, 2023).

Target: Fyn (UniProt P06241)
Test: phosphorylation enrichment, bacterial display (enrichment ratio); higher = better substrate or ligand; peptides without Tyr show the background
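Note: 11-residue human phosphosite peptides and single-mutation variants displayed on the E. coli surface, counted by deep sequencing, each peptide's frequency after selection divided by its frequency in the unselected input library; frequency after pTyr selection over input frequency; kinase dosed for 20-30% of maximal phosphorylation in three min.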

Fyn, sequence (P06241 whole entry, looked up): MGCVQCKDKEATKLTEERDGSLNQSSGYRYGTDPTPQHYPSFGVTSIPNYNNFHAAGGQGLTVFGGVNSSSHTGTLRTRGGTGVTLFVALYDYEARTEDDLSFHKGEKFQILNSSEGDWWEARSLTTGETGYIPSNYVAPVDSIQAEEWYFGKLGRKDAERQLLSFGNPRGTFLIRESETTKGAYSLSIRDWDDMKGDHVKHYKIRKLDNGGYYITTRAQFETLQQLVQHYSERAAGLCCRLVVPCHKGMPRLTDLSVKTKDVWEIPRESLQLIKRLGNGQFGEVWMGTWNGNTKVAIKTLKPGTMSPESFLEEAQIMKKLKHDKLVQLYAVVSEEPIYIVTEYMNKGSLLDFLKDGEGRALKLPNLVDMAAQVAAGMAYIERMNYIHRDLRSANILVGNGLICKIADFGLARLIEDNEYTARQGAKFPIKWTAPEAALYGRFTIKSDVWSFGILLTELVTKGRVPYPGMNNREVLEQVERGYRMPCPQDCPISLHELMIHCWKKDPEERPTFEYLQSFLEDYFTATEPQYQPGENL

Sequence	phosphorylation enrichment
LIYTNYEAGKD [GSTP1_Y112]	7.8
IGEGTYGVVFK [CDK2_Y15_YF]	7.22
IGSQRYKLGVR [RB1_Y446]	0.332
RRIHSYRSHLW [VHL_Y112_G114S]	0.833
EEQKRYYNAMK [SCN5A_Y1494_K1493R]	0.471
HELFVYKCDEN [DOCK3_Y548_YF]	1.54
NTFEKYWLFFQ [GATM_Y103_P105L_YF]	0.501
KTGDYYDLYGG [PTPN11_Y63_N58K]	4.48
IVAREYYSEAD [CAMK2A_Y106]	0.474
FRPPYYHRDCM [HGD_Y334_N337D]	0.417
TETGRYEILTE	0.387
RVEDAYILTCN [CCT6A_Y229]	0.839
DLRTGYSVPYG [TGM1_Y370_Y365D]	0.392
LNPLIYSLRNK [OR5R1_Y290]	6.76
SSNTEYLSASD [INSR_Y999_P997T]	0.52
EYFDGYWEYSV [ITGA2B_Y265_G267E]	5.41
PDSVDYRKKGF [CTSK_Y121_YF]	0.32

Sequence	phosphorylation enrichment
EPAVLYNLKER [MYH7_Y103_D107E]	0.511
LASLIYNFILF [AQP6_Y231_V234I]	13.3
GQSKGYRPKLF [SIPA1L3_Y1376_YF]	0.363
CEHRGFLYLAI [TEK_Y897_Y897F]	0.372
SLTRLCVGENA [NLRP3_Y861_Y861C]	0.503
QPGTDYKIYRY [FN1_Y1970_L1974R]	0.468
VMSMNYRVGAL [BCHE_Y174_V170M]	0.462
SHMVDYQPYRK [TEX37_Y25]	0.59
AQAERYDDMAA [YWHAG_Y20_E15A]	0.478
SHLEDYPFNAE [AKR1B10_Y310]	0.517
NIKKEYAKMVQ [PMS2_Y181]	0.335
QDLFLYQTHSE [PKHD1_Y255]	0.59
CTIIHYNYMCN [TP53_Y234_T231I]	0.588
KNILCYIQGGS [HYDIN_Y4610]	0.436
ALVDTYCRHNY [HLA-DRB1_Y107_A103L]	0.46
SPPILYSFYLD [FCRL6_Y239]	2.03

Target: EPHB2 (UniProt P29323)
Sequence (P29323 whole entry, looked up): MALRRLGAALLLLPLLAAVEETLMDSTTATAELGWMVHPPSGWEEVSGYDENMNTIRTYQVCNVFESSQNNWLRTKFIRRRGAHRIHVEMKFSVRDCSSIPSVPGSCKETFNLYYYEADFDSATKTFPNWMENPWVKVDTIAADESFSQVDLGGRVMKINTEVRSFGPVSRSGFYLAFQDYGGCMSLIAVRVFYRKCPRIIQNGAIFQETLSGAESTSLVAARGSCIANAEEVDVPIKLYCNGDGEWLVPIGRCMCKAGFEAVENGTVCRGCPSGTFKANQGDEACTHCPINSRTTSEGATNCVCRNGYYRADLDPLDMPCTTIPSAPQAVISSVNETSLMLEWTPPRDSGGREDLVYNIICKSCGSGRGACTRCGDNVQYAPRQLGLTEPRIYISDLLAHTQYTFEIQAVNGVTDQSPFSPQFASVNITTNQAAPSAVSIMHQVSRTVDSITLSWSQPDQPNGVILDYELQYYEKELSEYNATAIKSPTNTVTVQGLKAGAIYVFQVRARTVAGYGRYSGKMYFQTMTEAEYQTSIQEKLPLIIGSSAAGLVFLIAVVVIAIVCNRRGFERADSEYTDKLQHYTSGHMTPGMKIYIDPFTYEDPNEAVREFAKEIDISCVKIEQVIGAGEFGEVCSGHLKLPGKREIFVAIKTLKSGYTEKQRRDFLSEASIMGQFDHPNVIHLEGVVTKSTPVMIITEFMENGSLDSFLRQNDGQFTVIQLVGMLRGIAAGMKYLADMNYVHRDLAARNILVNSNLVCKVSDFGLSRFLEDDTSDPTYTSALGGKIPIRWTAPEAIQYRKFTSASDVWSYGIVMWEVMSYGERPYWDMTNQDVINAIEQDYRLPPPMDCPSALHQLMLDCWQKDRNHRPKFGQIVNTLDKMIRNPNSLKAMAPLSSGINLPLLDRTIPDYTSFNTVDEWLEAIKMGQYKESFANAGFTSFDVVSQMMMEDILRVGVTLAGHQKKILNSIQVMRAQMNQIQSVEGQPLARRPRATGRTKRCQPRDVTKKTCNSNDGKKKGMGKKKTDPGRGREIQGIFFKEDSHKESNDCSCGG
Test: as above

Sequence	phosphorylation enrichment
LIYTNYEAGKD [GSTP1_Y112]	8.11
IGEGTYGVVFK [CDK2_Y15_YF]	2.86
IGSQRYKLGVR [RB1_Y446]	0.332
RRIHSYRSHLW [VHL_Y112_G114S]	2.19
EEQKRYYNAMK [SCN5A_Y1494_K1493R]	0.49
HELFVYKCDEN [DOCK3_Y548_YF]	1.13
NTFEKYWLFFQ [GATM_Y103_P105L_YF]	0.682
KTGDYYDLYGG [PTPN11_Y63_N58K]	7.72
IVAREYYSEAD [CAMK2A_Y106]	0.552
FRPPYYHRDCM [HGD_Y334_N337D]	0.611
TETGRYEILTE	0.466
RVEDAYILTCN [CCT6A_Y229]	0.487
DLRTGYSVPYG [TGM1_Y370_Y365D]	0.411
LNPLIYSLRNK [OR5R1_Y290]	1.29
SSNTEYLSASD [INSR_Y999_P997T]	0.573
EYFDGYWEYSV [ITGA2B_Y265_G267E]	3.58
PDSVDYRKKGF [CTSK_Y121_YF]	0.646

Sequence	phosphorylation enrichment
EPAVLYNLKER [MYH7_Y103_D107E]	0.547
LASLIYNFILF [AQP6_Y231_V234I]	1.28
GQSKGYRPKLF [SIPA1L3_Y1376_YF]	0.324
CEHRGFLYLAI [TEK_Y897_Y897F]	0.466
SLTRLCVGENA [NLRP3_Y861_Y861C]	0.541
QPGTDYKIYRY [FN1_Y1970_L1974R]	0.555
VMSMNYRVGAL [BCHE_Y174_V170M]	0.592
SHMVDYQPYRK [TEX37_Y25]	0.402
AQAERYDDMAA [YWHAG_Y20_E15A]	0.595
SHLEDYPFNAE [AKR1B10_Y310]	0.511
NIKKEYAKMVQ [PMS2_Y181]	0.413
QDLFLYQTHSE [PKHD1_Y255]	0.726
CTIIHYNYMCN [TP53_Y234_T231I]	0.694
KNILCYIQGGS [HYDIN_Y4610]	0.748
ALVDTYCRHNY [HLA-DRB1_Y107_A103L]	0.486
SPPILYSFYLD [FCRL6_Y239]	4.22

Tested on: AncSZ
Test: as above

Sequence	phosphorylation enrichment
LIYTNYEAGKD [GSTP1_Y112]	1.23
IGEGTYGVVFK [CDK2_Y15_YF]	0.826
IGSQRYKLGVR [RB1_Y446]	0.447
RRIHSYRSHLW [VHL_Y112_G114S]	0.576
EEQKRYYNAMK [SCN5A_Y1494_K1493R]	0.623
HELFVYKCDEN [DOCK3_Y548_YF]	2.31
NTFEKYWLFFQ [GATM_Y103_P105L_YF]	1.29
KTGDYYDLYGG [PTPN11_Y63_N58K]	1.86
IVAREYYSEAD [CAMK2A_Y106]	1.03
FRPPYYHRDCM [HGD_Y334_N337D]	0.805
TETGRYEILTE	0.742
RVEDAYILTCN [CCT6A_Y229]	1.07
DLRTGYSVPYG [TGM1_Y370_Y365D]	0.721
LNPLIYSLRNK [OR5R1_Y290]	1.13
SSNTEYLSASD [INSR_Y999_P997T]	0.884
EYFDGYWEYSV [ITGA2B_Y265_G267E]	4.06
PDSVDYRKKGF [CTSK_Y121_YF]	0.524

Sequence	phosphorylation enrichment
EPAVLYNLKER [MYH7_Y103_D107E]	0.804
LASLIYNFILF [AQP6_Y231_V234I]	2.67
GQSKGYRPKLF [SIPA1L3_Y1376_YF]	0.433
CEHRGFLYLAI [TEK_Y897_Y897F]	0.971
SLTRLCVGENA [NLRP3_Y861_Y861C]	0.809
QPGTDYKIYRY [FN1_Y1970_L1974R]	1.02
VMSMNYRVGAL [BCHE_Y174_V170M]	0.767
SHMVDYQPYRK [TEX37_Y25]	0.759
AQAERYDDMAA [YWHAG_Y20_E15A]	0.871
SHLEDYPFNAE [AKR1B10_Y310]	1.01
NIKKEYAKMVQ [PMS2_Y181]	0.549
QDLFLYQTHSE [PKHD1_Y255]	1.52
CTIIHYNYMCN [TP53_Y234_T231I]	0.963
KNILCYIQGGS [HYDIN_Y4610]	1.13
ALVDTYCRHNY [HLA-DRB1_Y107_A103L]	0.474
SPPILYSFYLD [FCRL6_Y239]	1.31

Target: FGFR1 (UniProt P11362)
Sequence (P11362 whole entry, looked up): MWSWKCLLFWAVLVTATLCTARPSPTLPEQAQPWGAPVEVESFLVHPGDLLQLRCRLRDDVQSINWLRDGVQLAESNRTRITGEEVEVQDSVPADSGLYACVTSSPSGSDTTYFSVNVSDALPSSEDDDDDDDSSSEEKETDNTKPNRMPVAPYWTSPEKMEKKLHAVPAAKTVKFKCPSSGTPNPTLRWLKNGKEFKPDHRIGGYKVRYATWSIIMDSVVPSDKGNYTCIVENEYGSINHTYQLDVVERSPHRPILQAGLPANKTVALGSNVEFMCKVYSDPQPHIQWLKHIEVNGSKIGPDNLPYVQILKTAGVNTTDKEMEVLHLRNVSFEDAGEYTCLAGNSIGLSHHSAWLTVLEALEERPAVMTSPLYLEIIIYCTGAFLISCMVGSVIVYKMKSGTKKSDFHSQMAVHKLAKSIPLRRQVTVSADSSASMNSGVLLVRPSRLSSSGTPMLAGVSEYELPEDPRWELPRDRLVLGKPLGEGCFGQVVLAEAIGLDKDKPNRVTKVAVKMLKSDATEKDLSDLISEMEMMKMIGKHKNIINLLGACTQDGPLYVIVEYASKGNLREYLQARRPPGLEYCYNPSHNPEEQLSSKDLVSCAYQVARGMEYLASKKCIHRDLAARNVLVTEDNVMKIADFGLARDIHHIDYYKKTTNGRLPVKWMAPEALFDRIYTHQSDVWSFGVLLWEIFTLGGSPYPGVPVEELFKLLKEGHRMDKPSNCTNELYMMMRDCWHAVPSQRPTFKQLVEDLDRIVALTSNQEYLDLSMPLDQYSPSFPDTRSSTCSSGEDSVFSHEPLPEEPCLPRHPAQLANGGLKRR
Test: as above

Sequence	phosphorylation enrichment
LIYTNYEAGKD [GSTP1_Y112]	1.78
IGEGTYGVVFK [CDK2_Y15_YF]	0.431
IGSQRYKLGVR [RB1_Y446]	0.369
RRIHSYRSHLW [VHL_Y112_G114S]	1.25
EEQKRYYNAMK [SCN5A_Y1494_K1493R]	0.511
HELFVYKCDEN [DOCK3_Y548_YF]	0.995
NTFEKYWLFFQ [GATM_Y103_P105L_YF]	0.761
KTGDYYDLYGG [PTPN11_Y63_N58K]	16.8
IVAREYYSEAD [CAMK2A_Y106]	0.618
FRPPYYHRDCM [HGD_Y334_N337D]	0.56
TETGRYEILTE	0.543
RVEDAYILTCN [CCT6A_Y229]	0.721
DLRTGYSVPYG [TGM1_Y370_Y365D]	0.553
LNPLIYSLRNK [OR5R1_Y290]	1.94
SSNTEYLSASD [INSR_Y999_P997T]	0.518
EYFDGYWEYSV [ITGA2B_Y265_G267E]	13.8
PDSVDYRKKGF [CTSK_Y121_YF]	0.402

Sequence	phosphorylation enrichment
EPAVLYNLKER [MYH7_Y103_D107E]	0.506
LASLIYNFILF [AQP6_Y231_V234I]	4.45
GQSKGYRPKLF [SIPA1L3_Y1376_YF]	0.364
CEHRGFLYLAI [TEK_Y897_Y897F]	0.419
SLTRLCVGENA [NLRP3_Y861_Y861C]	0.471
QPGTDYKIYRY [FN1_Y1970_L1974R]	0.583
VMSMNYRVGAL [BCHE_Y174_V170M]	0.485
SHMVDYQPYRK [TEX37_Y25]	0.47
AQAERYDDMAA [YWHAG_Y20_E15A]	0.469
SHLEDYPFNAE [AKR1B10_Y310]	0.489
NIKKEYAKMVQ [PMS2_Y181]	0.358
QDLFLYQTHSE [PKHD1_Y255]	0.492
CTIIHYNYMCN [TP53_Y234_T231I]	0.583
KNILCYIQGGS [HYDIN_Y4610]	0.585
ALVDTYCRHNY [HLA-DRB1_Y107_A103L]	0.401
SPPILYSFYLD [FCRL6_Y239]	1.42
